Assay [1] concerns the target T1, full-length beta-Catenin (Uniprot ID P35222) (Homo sapiens (Human), UniProt P35222 2-781).
T1 construct: Used at 10 nM in the FP probe solution as 'full-length'; Also used here for the endogenous beta-catenin of the DLD1 TCF/LEF reporter cells (functional rows); also called bCat; B-Catenin
T1 sequence: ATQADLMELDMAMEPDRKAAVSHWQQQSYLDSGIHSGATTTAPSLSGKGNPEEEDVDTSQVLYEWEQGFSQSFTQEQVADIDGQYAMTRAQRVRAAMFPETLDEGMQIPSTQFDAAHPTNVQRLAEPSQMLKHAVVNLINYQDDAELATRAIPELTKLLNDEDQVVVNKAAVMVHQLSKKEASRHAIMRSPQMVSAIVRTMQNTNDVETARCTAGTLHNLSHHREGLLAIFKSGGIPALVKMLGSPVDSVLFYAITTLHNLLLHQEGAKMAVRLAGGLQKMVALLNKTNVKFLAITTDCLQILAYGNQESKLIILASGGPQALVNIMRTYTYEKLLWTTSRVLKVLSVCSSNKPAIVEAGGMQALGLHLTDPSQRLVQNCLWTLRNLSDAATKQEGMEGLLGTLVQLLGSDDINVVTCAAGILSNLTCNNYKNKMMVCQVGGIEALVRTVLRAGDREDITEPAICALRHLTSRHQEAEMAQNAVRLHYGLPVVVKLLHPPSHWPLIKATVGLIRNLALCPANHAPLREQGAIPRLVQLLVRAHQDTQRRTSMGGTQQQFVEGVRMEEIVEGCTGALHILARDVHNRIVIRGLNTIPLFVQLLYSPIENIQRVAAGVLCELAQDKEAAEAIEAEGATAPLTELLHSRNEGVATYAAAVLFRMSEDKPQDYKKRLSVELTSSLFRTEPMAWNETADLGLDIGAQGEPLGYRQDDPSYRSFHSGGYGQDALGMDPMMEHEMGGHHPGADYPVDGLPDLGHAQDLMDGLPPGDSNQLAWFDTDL
The assay can be described thus: fluorescence polarization competition; 10 nM full-length beta-catenin + 10 nM 5FAM-TCF4 10-53 as competitor probe. As to the method:
(§1) The plate was incubated protected from light for 60 minutes at 20° C. prior to read. Reads were performed on a CLARIOstar plate reader (BMG Labtech) in duplicate, and data were fitted to a 1:1 binding model with hill slope using an in-house script. All provided concentrations are final concentrations.
On the technique in general: Fluorescence polarisation rises when a labelled molecule tumbles more slowly, as on binding a larger partner.

The target in assay [2] is T2, Bcat-Halo (UniProt P35222 1-781, HaloTag NanoBRET 618 Ligand bound to the Halo part).
T2 construct: Expressed in transfected HEK293 cells (NanoBRET acceptor construct); also called beta-catenin HaloTag fusion; not shown: HaloTag
T2 sequence (looked up): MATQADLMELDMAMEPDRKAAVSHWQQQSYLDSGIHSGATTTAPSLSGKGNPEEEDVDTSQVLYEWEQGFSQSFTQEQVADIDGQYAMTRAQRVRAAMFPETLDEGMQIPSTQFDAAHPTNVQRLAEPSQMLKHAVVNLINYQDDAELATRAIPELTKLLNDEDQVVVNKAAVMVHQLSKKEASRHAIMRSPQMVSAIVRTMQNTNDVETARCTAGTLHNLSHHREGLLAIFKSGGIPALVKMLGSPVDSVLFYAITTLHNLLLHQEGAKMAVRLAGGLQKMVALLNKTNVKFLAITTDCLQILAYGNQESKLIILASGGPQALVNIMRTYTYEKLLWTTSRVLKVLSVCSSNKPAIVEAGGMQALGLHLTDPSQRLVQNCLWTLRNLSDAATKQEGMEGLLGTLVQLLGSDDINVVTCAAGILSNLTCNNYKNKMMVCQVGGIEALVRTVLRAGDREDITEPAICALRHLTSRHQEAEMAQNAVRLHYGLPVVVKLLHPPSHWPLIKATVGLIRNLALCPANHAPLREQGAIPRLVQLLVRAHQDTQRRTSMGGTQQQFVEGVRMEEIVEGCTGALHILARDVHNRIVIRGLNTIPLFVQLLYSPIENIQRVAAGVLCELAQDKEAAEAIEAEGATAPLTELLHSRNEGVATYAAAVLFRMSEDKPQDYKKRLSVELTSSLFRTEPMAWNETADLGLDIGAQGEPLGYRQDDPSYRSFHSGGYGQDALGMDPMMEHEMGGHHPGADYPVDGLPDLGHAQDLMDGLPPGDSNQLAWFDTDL
Put plainly: NanoBRET Abs IC50, HEK293 cells transfected with Bcat-Halo and TCF4-Luc (competitor: TCF4-Luc); cellular assay. Background: Bioluminescence resonance energy transfer reports proximity on the nanometre scale.

Assay [3] deals with T3, full-length beta-Catenin (Uniprot ID P35222) (Homo sapiens (Human), UniProt P35222 2-781).
T3 construct: also called bCat; B-Catenin
T3 sequence: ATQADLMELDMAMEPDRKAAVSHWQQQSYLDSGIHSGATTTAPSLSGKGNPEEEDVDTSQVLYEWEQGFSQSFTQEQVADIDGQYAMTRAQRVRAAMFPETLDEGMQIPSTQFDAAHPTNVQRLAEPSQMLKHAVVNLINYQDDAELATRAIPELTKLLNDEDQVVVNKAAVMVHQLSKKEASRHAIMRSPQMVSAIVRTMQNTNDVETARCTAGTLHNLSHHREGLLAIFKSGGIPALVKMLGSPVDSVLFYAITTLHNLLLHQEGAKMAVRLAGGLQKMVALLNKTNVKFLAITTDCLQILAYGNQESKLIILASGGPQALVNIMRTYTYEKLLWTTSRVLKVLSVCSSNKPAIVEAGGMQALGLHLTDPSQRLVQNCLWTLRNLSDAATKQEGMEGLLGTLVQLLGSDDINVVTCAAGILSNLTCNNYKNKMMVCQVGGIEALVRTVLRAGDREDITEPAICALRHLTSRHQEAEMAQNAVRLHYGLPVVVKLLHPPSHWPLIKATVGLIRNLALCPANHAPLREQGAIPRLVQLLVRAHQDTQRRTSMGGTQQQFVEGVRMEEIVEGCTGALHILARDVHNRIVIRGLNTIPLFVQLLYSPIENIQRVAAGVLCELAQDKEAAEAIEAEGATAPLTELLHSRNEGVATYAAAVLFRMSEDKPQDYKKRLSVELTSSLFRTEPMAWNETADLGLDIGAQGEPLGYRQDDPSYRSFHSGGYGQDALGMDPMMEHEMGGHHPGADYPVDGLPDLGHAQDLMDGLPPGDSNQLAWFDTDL
Put plainly: fluorescence polarization competition; peptide titrated against 10 nM full-length beta-catenin with 10 nM 5FAM-TCF4(10-53) probe. As to the method:
as §1

Assay [4] concerns the target T4, beta-catenin in DLD1 TCF/LEF luciferase reporter cells (UniProt P35222 1-781).
T4 sequence (looked up): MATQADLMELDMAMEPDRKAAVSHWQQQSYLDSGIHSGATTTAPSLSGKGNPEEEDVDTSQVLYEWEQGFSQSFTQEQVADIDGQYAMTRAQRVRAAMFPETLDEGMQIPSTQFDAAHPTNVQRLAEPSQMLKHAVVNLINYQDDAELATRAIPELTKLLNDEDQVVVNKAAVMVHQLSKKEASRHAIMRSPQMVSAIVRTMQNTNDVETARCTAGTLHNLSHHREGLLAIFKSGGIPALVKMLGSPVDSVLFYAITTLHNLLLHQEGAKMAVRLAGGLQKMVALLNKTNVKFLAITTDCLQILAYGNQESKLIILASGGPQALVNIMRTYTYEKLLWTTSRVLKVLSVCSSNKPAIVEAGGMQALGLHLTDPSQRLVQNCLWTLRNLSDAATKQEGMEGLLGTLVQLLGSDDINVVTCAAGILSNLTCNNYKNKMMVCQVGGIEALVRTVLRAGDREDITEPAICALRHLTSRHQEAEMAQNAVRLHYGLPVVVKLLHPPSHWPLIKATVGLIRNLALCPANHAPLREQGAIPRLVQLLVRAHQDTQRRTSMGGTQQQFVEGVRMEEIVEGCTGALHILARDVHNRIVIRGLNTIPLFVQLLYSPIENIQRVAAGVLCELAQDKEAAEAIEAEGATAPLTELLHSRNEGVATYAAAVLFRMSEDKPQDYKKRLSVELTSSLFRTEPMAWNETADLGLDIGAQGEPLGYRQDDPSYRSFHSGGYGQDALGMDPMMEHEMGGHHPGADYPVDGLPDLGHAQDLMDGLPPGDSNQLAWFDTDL
The assay can be described thus: cell-based or functional assay.

Starred links: 1 amine or outer side, 2 acyl side, 3 side chain; linkers in the order of their positions; H or OH if unused. Positions of bridges follow the written chain, without caps; N, C: chain ends. Non-standard residues stand in square brackets, D forms with d. Primed or numbered codes have the meaning given here. PyrS2″ = (S)-3-amino-1-((pent-4-en-1-yloxy)carbonyl)pyrrolidine-3-carboxylic acid (stapling residue), C=CCCCOC(=O)N1CC[C@@](N[*:1])(C(=O)[*:2])C1; RdN″ = (R)-4-(((allyloxy)carbonyl)(methyl)amino)-2-amino-2-methylbutanoic acid (stapling residue), C=CCOC(=O)N(C)CC[C@@](C)(N[*:1])C(=O)[*:2]; B5(16) = 2-amino-2-(pent-4-en-1-yl)hept-6-enoic acid = 2,2-bis(4-pentenyl)glycine (stitching residue), C=CCCCC(CCCC=C)(N[*:1])C(=O)[*:2]; B5(4) = 2,2-bis(4-pentenyl)glycine = 2-amino-2-(pent-4-en-1-yl)hept-6-enoic acid (stitching residue), C=CCCCC(CCCC=C)(N[*:1])C(=O)[*:2]; Phe(3-COOH) = N[C@@H](Cc1cccc(C(=O)O)c1)C(=O)O; 2F3MeF = Cc1cccc(C[C@H](N[*:1])C(=O)[*:2])c1F; S7 = C[C@@](CCCCCC=[*:3])(N[*:1])C(=O)[*:2]; Phe(2-Cl) = N[C@@H](Cc1ccccc1Cl)C(=O)O; Bta = N[C@@H](Cc1csc2ccccc12)C(=O)O; αAllylPro = C=CC[C@@]1(C(=O)O)CCCN1; tBuAla = CC(C)(C)C[C@H](N)C(=O)O; PyrS2(4) = not defined here

Broadly, the EC50 is the concentration that produces a half-maximal response. In general, IC50 refers to the concentration at which inhibition is half-maximal. A high value points to a need for much substance. As for Ac-[αAllylPro]DF[B5(16)]DDAAFN[PyrS2″][Phe(2-Cl)][Bta]Q-NH2 (staple 1-4, 4-11, Stapled (stitched) peptide composition) [I-1041], the EC50 in assay [1] worked out at 8 nM. Besides, the IC50 in assay [2] is more than 20000 nM.
As to Ac-[αAllylPro]DF[B5(4)]DDAAFN[PyrS2″][Phe(2-Cl)][Bta]S-NH2 (staple 1-4, 4-11, Stapled (stitched) peptide composition) [I-1047], the EC50 in assay [1] was determined as 5 nM. In addition, the IC50 in assay [2] was 28400 nM.
As for Ac-[αAllylPro]DF[B5(16)]DDAAFS[PyrS2″][Phe(2-Cl)][Bta]Q-NH2 (staple 1-4, 4-11, Stapled (stitched) peptide composition) [I-1045], the concentration giving a half-maximal response (EC50) in assay [1] is 5 nM. The IC50 in assay [2] was 23900 nM.

B1: I-67: Ac-Ala-Asp-Ile-RdN-Asp-Glu-Ala-Ala-Phe-Gln-S7-Phe-Trp-His-NH2 (stapled peptide) (peptide)
peptide: Ac-ADI[RdN″]DEAAFQ[S7]FWH-NH2
modifications: staple 4-11
notes: This is the later eluting staple isomer composition
The molecule B1 showed a half-inhibitory concentration (IC50) in assay [3] of 1230 nM.

B2: I-1466 (peptide)
peptide: Ac-[αAllylPro]D[tBuAla][B5(4)]D[Phe(3-COOH)]AAFL[PyrS2(4)][2F3MeF][Bta]Q-NH2
modifications: staple 1-4, 4-11; not fully specified; printed as Ac-PL3-Asp-Npg-B5-Asp-3COOHF-Ala-Ala-Phe-Leu-PyrS2-2F3MeF-BztA-Gln-NH2; reading uncertain
For B2, in assay [4], the “DLD1 4% Abs IC50” value was 700 nM.

Values taken from patent US20240116985A1 (published 2024).
